Test results from patent US11702475B2, “Cysteine engineered fibronectin type III domain binding molecules” (Janssen Biotech, Inc., priority 2013, dated 2023).
Residue numbers refer to the chain shown, from its start. Names and notes keep the numbering of the source.

B1: I45C: cysteine variant of P54AR4-83v2 (SEQ ID NOS: 201 and 239); NEM and VC-MMAF conjugates (conjugate)
chain: MLPAPKNLVVSEVTEDSARLSWDDPWAFYESFLIQYQESEKVGEACVLTVPGSERSYDLTGLKPGTEYTVSIYGVHNVYKDTNMRGLPLSAIFTT
modifications: NEM or vcMMAF conjugate; EGFR binding FN3 domain
notes: NEM and VC-MMAF conjugates
B2: L47C: cysteine variant of P54AR4-83v2 (SEQ ID NOS: 202 and 240); NEM and VC-MMAF conjugates (conjugate)
chain: B1 chain with C46I, L48C
modifications: NEM or vcMMAF conjugate; EGFR binding FN3 domain
notes: NEM and VC-MMAF conjugates
B3: T48C: cysteine variant of P54AR4-83v2 (SEQ ID NOS: 203 and 241); NEM and VC-MMAF conjugates (conjugate)
chain: B1 chain with C46I, T49C
modifications: NEM or vcMMAF conjugate; EGFR binding FN3 domain
notes: NEM and VC-MMAF conjugates
B4: R54C: cysteine variant of P54AR4-83v2 (SEQ ID NOS: 205 and 243); NEM and VC-MMAF conjugates (conjugate)
chain: B1 chain with C46I, R55C
modifications: NEM or vcMMAF conjugate; EGFR binding FN3 domain
notes: NEM and VC-MMAF conjugates
B5: T59C: cysteine variant of P54AR4-83v2 (SEQ ID NOS: 206 and 244); NEM and VC-MMAF conjugates (conjugate)
chain: B1 chain with C46I, T60C
modifications: NEM or vcMMAF conjugate; EGFR binding FN3 domain
notes: NEM and VC-MMAF conjugates
B6: G60C: cysteine variant of P54AR4-83v2 (SEQ ID NOS: 207 and 245); NEM and VC-MMAF conjugates (conjugate)
chain: B1 chain with C46I, G61C
modifications: NEM or vcMMAF conjugate; EGFR binding FN3 domain
notes: NEM and VC-MMAF conjugates
B7: K62C: cysteine variant of P54AR4-83v2 (SEQ ID 208 and 246); NEM and VC-MMAF conjugates (conjugate)
chain: B1 chain with C46I, K63C
modifications: NEM or vcMMAF conjugate; EGFR binding FN3 domain
notes: NEM and VC-MMAF conjugates
B8: G64C: cysteine variant of P54AR4-83v2 (SEQ ID NOS: 209 and 247); NEM and VC-MMAF conjugates (conjugate)
chain: B1 chain with C46I, G65C
modifications: NEM or vcMMAF conjugate; EGFR binding FN3 domain
notes: NEM and VC-MMAF conjugates
B9: S70C: cysteine variant of P54AR4-83v2 (SEQ ID NOS: 211 and 249); NEM and VC-MMAF conjugates (conjugate)
chain: B1 chain with C46I, S71C
modifications: NEM or vcMMAF conjugate; EGFR binding FN3 domain
notes: NEM and VC-MMAF conjugates
B10: Y72C: cysteine variant of P54AR4-83v2; NEM and VC-MMAF conjugates (conjugate)
chain: LPAPKNLVVSEVTEDSARLSWDDPWAFYESFLIQYQESEKVGEAIVLTVPGSERSYDLTGLKPGTEYTVSICGVHNVYKDTNMRGLPLSAIFTT
modifications: left off: small tags and cut ends
notes: cysteine variant of P54AR4-83v2; NEM and VC-MMAF conjugates
B11: V74C: cysteine variant of P54AR4-83v2; NEM and VC-MMAF conjugates (conjugate)
chain: B10 chain with C72Y, V74C
modifications: left off: small tags and cut ends
notes: as for B10
B12: L88C: cysteine variant of P54AR4-83v2 (SEQ ID NOS: 212 and 250); NEM and VC-MMAF conjugates (conjugate)
chain: B1 chain with C46I, L89C
modifications: NEM or vcMMAF conjugate; EGFR binding FN3 domain
notes: NEM and VC-MMAF conjugates
B13: S89C: cysteine variant of P54AR4-83v2 (SEQ ID NOS: 213 and 251); NEM and VC-MMAF conjugates (conjugate)
chain: B1 chain with C46I, S90C
modifications: NEM or vcMMAF conjugate; EGFR binding FN3 domain
notes: NEM and VC-MMAF conjugates
B14: A90C: cysteine variant of P54AR4-83v2 (SEQ ID NOS: 214 and 252); NEM and VC-MMAF conjugates (conjugate)
chain: B1 chain with C46I, A91C
modifications: NEM or vcMMAF conjugate; EGFR binding FN3 domain
notes: NEM and VC-MMAF conjugates
B15: I91C: cysteine variant of P54AR4-83v2 (SEQ ID NOS: 215 and 253); NEM and VC-MMAF conjugates (conjugate)
chain: B1 chain with C46I, I92C
modifications: NEM or vcMMAF conjugate; EGFR binding FN3 domain
notes: NEM and VC-MMAF conjugates

Test system: not listed separately
Test: Thermal stability of cysteine-NEM conjugates by DSC
Format: physicochemical
Conditions: DSC 25-100 °C, 1 °C per minute
Summary of the method: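 Cysteine-NEM conjugates heated from 25 °C to 100 °C at 1 °C/min by DSC, with a repeat scan to check reversibility of unfolding. Melting temperature derived by fitting to a 2-state unfolding model.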

Row | Molecule | First Scan Tm [°C]
1 | B1 | 69
2 | B2 | 67
3 | B3 | 72
4 | B4 | 65
5 | B5 | 67
6 | B6 | 66
7 | B7 | 65
8 | B8 | 70
9 | B9 | 73
10 | B10 | 70
11 | B11 | 68
12 | B12 | 70
13 | B13 | 72
14 | B14 | 67
15 | B15 | 70

Same assay, conditions: second identical scan

Row | Molecule | Second Scan Tm [°C]
16 | B1 | 68
17 | B2 | 67
18 | B3 | 72
19 | B4 | 65
20 | B5 | 67
21 | B6 | 66
22 | B7 | 65
23 | B8 | 70
24 | B9 | 72
25 | B10 | 69
26 | B11 | 67
27 | B12 | 70
28 | B13 | 71
29 | B14 | 67
30 | B15 | 69

Test system: not listed separately
Test: Analytical size exclusion chromatography (percent monomer)
Format: physicochemical
Conditions: NEM-conjugated cysteine variants; SEC, Abs280 monomer region 5.5-6 minutes vs oligomer region 4-5.3 minutes
Summary of the method: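 Purified FN3 domains were run on a Superdex 75 5/150 column in PBS pH 7.4 at 0.3 mL/min with A280 detection. Percent monomer came from integrating the monomer peak (5.5–6 min) against oligomer peaks (4–5.3 min).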

Row | Molecule | Percent monomer [%]
31 | B1 | 97
32 | B2 | 100
33 | B3 | 90
34 | B4 | 96
35 | B5 | 100
36 | B6 | 100
37 | B7 | 95
38 | B8 | 100
39 | B9 | 100
40 | B10 | 100
41 | B11 | 100
42 | B12 | 98
43 | B13 | 96
44 | B14 | 100
45 | B15 | 100

Test system: EGFR-overexpressing human tumor cell line H1573
Test: Cytotoxicity assay in H1573 cells
Format: cell-based
Conditions: cysteine variants conjugated to VC-MMAF, Cell TiterGlo at 70 hours, read-out: IC50
Method: Cell killing was assessed by measuring viability of the EGFR-overexpressing human tumor cell line H1573 following exposure to the cysteine variant-cytotoxin conjugates. Cells were plated in black-well, clear bottomed, tissue culture-treated plates (Falcon 353219) at 7000/well in 100 μL/well of phenol red free RPMI media (Gibco 11835-030) with 5% fetal bovine serum (Gibco). Cells were allowed to attach overnight at 37° C. in a humidified 5% CO2 atmosphere. Medium was aspirated from 96-well plate and cells were treated with 50 uL of fresh media and 50 uL of 2× inhibitor made up in fresh media. Cell viability was determined by an endpoint assay with Cell TiterGlo (Promega) at 70 hours. IC50 values were determined by fitting data to the equation for a sigmoidal dose response with variable slope using GraphPad Prism 5 (GraphPad Software). Table 11 reports IC50 values obtained from analysis of the CellTiter Glo data.
Conjugates consisting of ECB147 cysteine variants, 83v2-cys, or Tencon-cys linked to a cytotoxic tubulin inhibitor from the auristatin family (FIG. 2) were tested for target-dependent cytotoxicity in cancer cells. The inhibitor was linked to the cysteine-containing protein via a non-cleavable PEG4 linker or an enzyme-cleavable valine-citrulline or valine-lysine linker. Cell killing was assessed by measuring viability of the EGFR-overexpressing human tumor cell lines H1573 and A431 as well as the EGFR-negative tumor cell line MDA-MB-435 following exposure to the protein-cytotoxin conjugates using the procedure described in Example 4.

Row | Molecule | IC50 [nM]
46 | B1 | 0.63
47 | B2 | 1.03
48 | B3 | 0.59
49 | B4 | 0.37
50 | B5 | 0.44
51 | B6 | 1
52 | B7 | 1.25
53 | B8 | 0.36
54 | B9 | 1.14
55 | B10 | 1.85
56 | B11 | 3.13
57 | B12 | 0.81
58 | B13 | 0.94
59 | B14 | 1
60 | B15 | 0.54
